Measurements from patent US20220332813A1 (UNIVERSITY OF MARYLAND BALTIMORE, published 2022).
One block for each binder: values may come before it.

Tests used:
[1] = molecular target: T1, hyperphosphorylated 2N4R tau produced by Sf9 cells (human, UniProt P10636-8 1-441, hyperphosphorylated (produced in Sf9 insect cells, intermediate phosphorylation state); sites not stated); assay: SPR equilibrium (KD eq, Req fit)
T1 construct: His-tagged; also called SF9 tau; 2N4R SF9

[2] = molecular target: T2, human recombinant tau (2N4R) (human, UniProt P10636-8 1-441); assay: SPR, from kinetic parameters of the 1:1 fit
T2 construct: Radio-iodinated in the cell assays; also called monomeric tau; full-length tau (2N4R)

[3] = molecular target: T1, hyperphosphorylated 2N4R tau produced …; assay: SPR, from kinetic parameters of the 1:1 fit
[4] = molecular target: T2, human recombinant tau (2N4R); assay: SPR single cycle, VPS10P domain immobilised, 1:1 fit
[5] = molecular target: T1, hyperphosphorylated 2N4R tau produced …; assay: as above
[6] = molecular target: T2, human recombinant tau (2N4R); assay: SPR, SorLA fragment 82-181 immobilised, increasing tau

T1 sequence (P10636 other isoform, or with tags, fused parts or gaps limits assumed): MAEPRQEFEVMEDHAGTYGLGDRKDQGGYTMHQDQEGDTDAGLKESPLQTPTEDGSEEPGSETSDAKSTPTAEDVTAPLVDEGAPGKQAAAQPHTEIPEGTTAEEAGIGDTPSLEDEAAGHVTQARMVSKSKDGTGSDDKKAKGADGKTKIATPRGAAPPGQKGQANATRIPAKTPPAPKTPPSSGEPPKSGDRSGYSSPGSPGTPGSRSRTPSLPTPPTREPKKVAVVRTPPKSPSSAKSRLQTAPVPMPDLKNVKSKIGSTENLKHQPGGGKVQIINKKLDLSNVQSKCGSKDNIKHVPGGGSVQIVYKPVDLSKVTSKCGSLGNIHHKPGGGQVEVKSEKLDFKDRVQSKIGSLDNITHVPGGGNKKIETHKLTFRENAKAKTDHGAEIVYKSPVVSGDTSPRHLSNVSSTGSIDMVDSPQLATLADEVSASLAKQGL
T2 sequence (P10636 other isoform, or with tags, fused parts or gaps limits assumed): as above

Kd [1]: 95 nM
Kd [2]: 15 nM
Kd [3]: 78 nM
koff [4]: 0.41 s⁻¹
kon [4]: 5e+07 M⁻¹ s⁻¹
koff [5]: 0.0061 s⁻¹
kon [5]: 85000 M⁻¹ s⁻¹
B1: recombinant human SORLA VPS10P domain (residues 82-753) (receptor)
chain: SAALQPEPIKVYGQVSLNDSHNQMVVHWAGEKSNVIVALARDSLALARPKSSDVYVSYDYGKSFKKISDKLNFGLGNRSEAVIAQFYHSPADNKRYIFADAYAQYLWITFDFCNTLQGFSIPFRAADLLLHSKASNLLLGFDRSHPNKQLWKSDDFGQTWIMIQEHVKSFSWGIDPYDKPNTIYIERHEPSGYSTVFRSTDFFQSRENQEVILEEVRDFQLRDKYMFATKVVHLLGSEQQSSVQLWVSFGRKPMRAAQFVTRHPINEYYIADASEDQVFVCVSHSNNRTNLYISEAEGLKFSLSLENVLYYSPGGAGSDTLVRYFANEPFADFHRVEGLQGVYIATLINGSMNEENMRSVITFDKGGTWEFLQAPAFTGYGEKINCELSQGCSLHLAQRLSQLLNLQLRRMPILSKESAPGLIIATGSVGKNLASKTNVYISSSAGARWREALPGPHYYTWGDHGGIITAIAQGMETNELKYSTNEGETWKTFIFSEKPVFVYGLLTEPGEKSTVFTIFGSNKENVHSWLILQVNATDALGVPCTENDYKLWSPSDERGNECLLGHKTVFKRRTPHATCFNGEDFDRPVVVSNCSCTREDYECDFGFKMSEDLSLEVCVPDPEFSGKSYSPPVPCPVGSTYRRTRGYRKISGDTCSGGDVEARLEGELVPCP
notes: also called SORL1 VPS10 domain; R&D Systems 9880-LA

Kd [6]: 40 nM
B2: commercially available fragment of SorLA comprising residues 82-181 (receptor)
chain: SAALQPEPIKVYGQVSLNDSHNQMVVHWAGEKSNVIVALARDSLALARPKSSDVYVSYDYGKSFKKISDKLNFGLGNRSEAVIAQFYHSPADNKRYIFAD
notes: The range may be a misprint for 82-753; also called SorLA fragment
